Reference: IntAct's records for PubMed 18617507

B1: Serine/threonine-protein kinase VRK1 (Homo sapiens), Q99986 (parent)
chain: MPRVKAAQAGRQSSAKRHLAEQFAVGEIITDMAKKEWKVGLPIGQGGFGCIYLADMNSSESVGSDAPCVVKVEPSDNGPLFTELKFYQRAAKPEQIQKWIRTRKLKYLGVPKYWGSGLHDKNGKSYRFMIMDRFGSDLQKIYEANAKRFSRKTVLQLSLRILDILEYIHEHEYVHGDIKASNLLLNYKNPDQVYLVDYGLAYRYCPEGVHKEYKEDPKRCHDGTIEFTSIDAHNGVAPSRRGDLEILGYCMIQWLTGHLPWEDNLKDPKYVRDSKIRYRENIASLMDKCFPEKNKPGEIAKYMETVKLLDYTEKPLYENLRDILLQGLKAIGSKDDGKLDLSVVENGGLKAKTITKKRKKEIEESKEPGVEDTEWSNTQTEEAIQTRSRTRKRVQK

Variants of: B1
Settings: with ran_human RAN

Variant	effect of a mutation on the interaction
MPRVKAAQAGRQSSAKRHLAEQFAVGEIITDMAKKEWKVGLPIGQGGFGCIYLADMNSSESVGSDAPCVVKVEPSDNGPLFTELKFYQRAAKPEQIQKWIRTRKLKYLGVPKYWGSGLHDKNGKSYRFMIMDRFGSDLQKIYEANAKRFSRKTVLQLSLRILDILEYIHEHEYVHGDIEASNLLLNYKNPDQVYLVDYGLAYRYCPEGVHKEYKEDPKRCHDGTIEFTSIDAHNGVAPSRRGDLEILGYCMIQWLTGHLPWEDNLKDPKYVRDSKIRYRENIASLMDKCFPEKNKPGEIAKYMETVKLLDYTEKPLYENLRDILLQGLKAIGSKDDGKLDLSVVENGGLKAKTITKKRKKEIEESKEPGVEDTEWSNTQTEEAIQTRSRTRKRVQK [K179E]	decreasing interaction
